The source of these data is article PMC8168426 (ACS chemical biology, 2020).

T1: PHD1^287–347-KDAC8–6xHis fusion construct (UniProt P29375 287-347)
T1 sequence (looked up): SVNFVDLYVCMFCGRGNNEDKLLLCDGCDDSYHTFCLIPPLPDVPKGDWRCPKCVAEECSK

T2: GST-PHD1 (S287–K347) of histone demethylase KDM5A (UniProt P29375 287-347)
T2 sequence (looked up): T1 sequence (looked up)

B1: H3 Q5R 6-mer ligand (ARXKZC with X = T, Z = R) (peptide)
peptide: ARTKRC
B2: H3 T3Y Q5Y 6-mer ligand (ARXKZC with X = Y, Z = Y) (peptide)
peptide: ARYKYC
B3: H3 T3V Q5W 6-mer ligand (ARXKZC with X = V, Z = W) (peptide)
peptide: ARVKWC
B4: H3 T3V Q5R 6-mer ligand (ARXKZC with X = V, Z = R) (peptide)
peptide: ARVKRC
B5: H3 T3Y 6-mer ligand (ARXKZC with X = Y, Z = Q) (peptide)
peptide: ARYKQC
B6: H3 T3Y Q5R 6-mer ligand (ARXKZC with X = Y, Z = R) (peptide)
peptide: ARYKRC
B7: H3 Q5S 6-mer ligand (ARXKZC with X = T, Z = S) (peptide)
peptide: ARTKSC
B8: H3 Q5A 10-mer peptide (peptide, UniProt P68431 2-11, looked up)
peptide: ARTKATARKS
B9: H3 T3Y 10-mer peptide (peptide, UniProt P68431 2-11, looked up)
peptide: ARYKQTARKS
B10: H3 T3Y Q5Y 10-mer peptide (peptide, UniProt P68431 2-11, looked up)
peptide: ARYKYTARKS
B11: H3 T3A 10-mer peptide (peptide, UniProt P68431 2-11, looked up)
peptide: ARAKQTARKS
B12: H3 T3F 10-mer peptide (peptide, UniProt P68431 2-11, looked up)
peptide: ARFKQTARKS
B13: H3 T3D 10-mer peptide (peptide, UniProt P68431 2-11, looked up)
peptide: ARDKQTARKS
B14: Q5-serotonylated H3 12-mer ligand (peptide)
peptide: ARTKQ(NHCH2CH2(5-OH-indol-3-yl))TARKSGC
modifications: not fully specified (C-terminus)
B15: H3 peptide (1–10) carrying a C-terminal fluorescein label (peptide, UniProt P68431 2-11, looked up)
peptide: ARTKQTARKS-fluorescein
B16: unmodified H3 12-mer ligand (first 10 N-terminal residues of H3 and a GC moiety) (peptide)
peptide: ARTKQTARKSGC
modifications: not fully specified (C-terminus)
B17: H3 Q5E 12-mer ligand (peptide)
peptide: ARTKETARKSGC
B18: H3K9me3 12-mer ligand (peptide)
peptide: ARTKQTARKSGC
modifications: not fully specified; trimethyl-lysine at 9 (H3K9me3)
B19: H3K4me2 12-mer ligand (peptide)
peptide: ARTK(Me2)QTARKSGC
modifications: not fully specified (C-terminus)
B20: H3 Q5Y 12-mer ligand (peptide)
peptide: ARTKYTARKSGC
B21: H3K4me1 12-mer ligand (peptide)
peptide: ARTK(Me)QTARKSGC
modifications: not fully specified (C-terminus)
B22: H3K4me3 12-mer ligand (peptide)
peptide: ARTK(Me3)QTARKSGC
modifications: not fully specified (C-terminus)

Ends that are not written are not given here. * marks the point of attachment. NHCH2CH2(5-OH-indol-3-yl) = Oc1ccc2[nH]cc(CCN*)c2c1; fluorescein = fluorescein label (C-terminal); Me3 = trimethyl (trimethyl-lysine); Me2 = dimethyl (dimethyl-lysine)

The first assay has as its target T1, PHD1^287–347-KDAC8–6xHis fusion …. Put plainly: PI-SAMDI.
Conditions: not given
For the molecule B1, the binding result was “binds”.
Turning to B2, the binding result is listed as “binds”.
Same read-out and setting: to B3 belongs “binds”; to B4, “binds”; to B5, “binds”.
The same measure, in the same setting: to B6 belongs “binds”.
Regarding B7, the binding result is “binds”.

Another assay has as its target T2, GST-PHD1 (S287–K347) of histone …. Briefly: fluorescence polarisation.
Conditions: not given
(Polarisation of emitted light reports the rotation of a fluorescent probe.)
B8 came in with a Ki of 0.75 µM.
Same read-out and setting: the result for B9 reads greater than 100 µM; that for B10, greater than 100 µM.
B11 displayed a Ki greater than 100 µM.
Same read-out and setting: to B12 belongs greater than 100 µM.
On the same count and under the same terms, the result for B13 reads greater than 100 µM.

A further assay relates to PHD1 domain of KDM5A.
Experiment: not given
To be noted: result in words; cited from earlier work.
With “N-terminally acetylated H3: N-terminally acetylated H3 12-mer peptide (Ac-ARTKQTARKSGC)”, the “Binding to PHD1 as previously established” value (“Binding to PHD1” below) is “not bind PHD1”.
On to “H3K9me3: well-characterized H3 12-mer ligand bearing K9me3 (ARTKQTARKSGC; trimethyl-lysine at 9 (H3K9me3)) [Ligand H3K9me3]”, for which the “Binding to PHD1” value is “does not impact PHD1-H3 association”.
In the case of “H3 R2A: well-characterized H3 12-mer ligand with R2A mutation (AATKQTARKSGC)”, the “Binding to PHD1” value is “strongly reduces binding”.

The next assay addresses T2, GST-PHD1 (S287–K347) of histone …. Put plainly: fluorescence polarisation.
Conditions: not given
This is another data set of the same source.
With B14, the binding result is “binds”.
Same read-out and setting: to B15 belongs “binds”; to B16, “binds”.

In the next assay the target is T1, PHD1^287–347-KDAC8–6xHis fusion …. Briefly: PI-SAMDI.
Conditions: not given
The source holds these as a separate data set.
Turning to B17, the binding result is listed as “binds”.
Take B18: the binding result is “binds”.
The same measure, in the same setting: to B19 belongs “binds”.
Regarding B20, the binding result was “binds”.
With B14, the binding result was “binds”.
Same read-out and setting: to B21 belongs “binds”; to B16, “binds”.
Same read-out and setting: the result for B22 reads “binds”.

What is called Ki is the dissociation constant of the complex between target and ligand, obtained from inhibition or displacement.
